Results from patent US20040259198.

Tested on: recombinant human MAT II β subunit protein with N-terminal poly-His tag, expressed in E. coli from pQE-30 (Clone 5)

For “recombinant human MAT II α2 subunit expressed in E. coli from the pQE-30 vector”, the “Km (L-Met)” value was “the cloned protein lowered the Km (L-Met) of the recombinant human MAT II α2 subunit from 80 µM to 34 µM”, the “Km for L-Met in the presence of the MAT II β subunit” value was “another kinetic form with a Km for L-Met of 32-34 µM was also apparent, in each case” and the “Km of MAT for L-methionine” value was “This association changed the kinetic properties of the enzyme and lowered the Km of MAT for L-methionine”.
